# Measured values: article PMC5360445, “SMOC can act as both an antagonist and an expander of BMP signaling” (eLife, 2017)
# B1: human SMOC-1 (natural protein, UniProt Q9H4F8 27-434, looked up)
# chain: HRTTGPRFLISDRDPQCNLHCSRTQPKPICASDGRSYESMCEYQRAKCRDPTLGVVHRGRCKDAGQSKCRLERAQALEQAKKPQEAVFVPECGEDGSFTQVQCHTYTGYCWCVTPDGKPISGSSVQNKTPVCSGSVTDKPLSQGNSGRKDDGSKPTPTMETQPVFDGDEITAPTLWIKHLVIKDSKLNNTNIRNSEKVYSCDQERQSALEEAQQNPREGIVIPECAPGGLYKPVQCHQSTGYCWCVLVDTGRPLPGTSTRYVMPSCESDARAKTTEADDPFKDRELPGCPEGKKMEFITSLLDALTTDMVQAINSAAPTGGGRFSEPDPSHTLEERVVHWYFSQLDSNSSNDINKREMKPFKRYVKKKAKPKKCARRFTDYCDLNKDKVISLPELKGCLGVSKEGRLV
# notes: human SMOC-1, construct pET28-SMOC-1-HT of Novinec et al., 2008; expected monomeric size 46.6 kDa; probably the protein without its signal peptide; also called hSMOC-1; pET28-SMOC-1-HT
# Experiments:
# [1] = molecular target: XSMOC-1∆EC (XSMOC-1 lacking the EC domain) (Xenopus); assay: SEC; HiLoad Superdex-200 PG, 20 mM Tris/HCl pH 7.5, 300 mM NaCl, 2 mM CaCl2, 10% glycerol; proteins refolded in the presence of 2 mM CaCl2; molecular weights calculated from elution
# [2] = molecular target: recombinant mature XSMOC-1 (Xenopus SMOC-1) (Xenopus); assay: not stated; data not shown; in the presence of 50 mM EDTA and 1 mM nitriloacetic acid
# [3] = molecular target: recombinant mature XSMOC-1 (Xenopus SMOC-1) (Xenopus); assay: SEC; XSMOC-1 refolded in the presence of 2 mM CaCl2, then dialysed in the presence of 10.5 mM EDTA
# [4] = molecular target: recombinant mature XSMOC-1 (Xenopus SMOC-1) (Xenopus); assay: SEC; HiLoad Superdex-200 PG, 20 mM Tris/HCl pH 7.5, 300 mM NaCl, 2 mM CaCl2, 10% glycerol; proteins refolded in the presence of 2 mM CaCl2; molecular weights calculated from elution
# [5] = molecular target: the molecule itself; assay: as above
molecule,measurement,setting,value
XSMOC-1∆EC (XSMOC-1 lacking the EC domain) (domain or fragment),stoichiometry N,[1],2
recombinant mature XSMOC-1 (Xenopus SMOC-1) (natural protein),stoichiometry N,[2],2
same,stoichiometry N,[3],2
same,stoichiometry N,[4],2
B1,stoichiometry N,[5],2
